The results in this text go back to a protein production outcome set (Wang et al. 2014).
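Also: failed if final PepcDB status was selected cloned or expressed and not failed if soluble or beyond.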

The nature of the series: label from the status in PepcDB records.
For “MVAATSQNTFDSPRSPLYNFTMDIRPLSDVAGVILVGGRSRRMGRDKALIPLGGKPLVERVIDAFRPLFERILLVGDRGERFASYGLPVFPDIHPGSALGGLYTGLVRAGTPHVFVSACDVPWPDPRVIARLCSLREGFDVVVPRTVGGSEPLFAVYGTGCLPAMERMLREGNYRIYDFYPEVRTRYVEQAELADLVTPARTFVNVNTPEEFETIRNREEGMAIKAVSFVAKSGTGKTTLLEKVIAELKGRGYRIGVIKHDAHRFDIDHPGKDSHRLAAAGADTMLIASPEKLALVKKYDESPPLDELLATYFGDVDIVLTEGFKKSSLPKIEVHRMERSATLLCRGEEHDPTLVAVASDAALALDVPVFDLNNPAQVADFVERTFLAAGAALEHHHHHH”, the protein production entry is “not failed”.

On to “MVALRGKEIDAFLARPDAGRPIVLLYGPDAGLVRERADALIASAVDDPNDPFSLVRLDGDELSAEPSRLVDEAMTVPLFGGQRAIRVRAGSRSFASGIDTLAEMGVKDCRIVIEAGELRPESPLRKACERAKTAVAIGCYPDTERDLAKLMDDELRIANLRIAQDARAALMSFLGGDRQASRNELRKLTLYAHGKGEITLEDVMAVVADASELKLDPIVDGAFAGRPDIVETEFAKAMIAGTYPGVIISAAQRQAAWLHKSALAIADGQPASAVLDGGFPRLHFSRKPAVETALRNFSVARLAAIIEQLATAALDTRKQSTLAAAIAQRTLMAIAANAKRRGLEHHHHHH”, for which the protein production entry is reported as “failed”.

Take “MVANLPALFSLGVFVGVILLIMSEKIHLTIAAFLGALILVFTHVITLKEGIDYISQSYATLALFFGVMVLVRSFEPTKIFEYLATQMVLLAKGSGKLLMLGVIAITTPICAVLPNATTVMLLAPLIPPLAQEIGVDFVPILILMVFVANSAGLLTLVGDPATFIVGDAINISFNDYLFKLSFMGVLAIVSIVVITPFLFRHIWRSRFTHLEDLPHPQINHPKVLMAGGVIITLVLIFFVIGESLPVPIPPASVALMGACLALLLASQSKIDTVHNILRDVDWSTLIFFMSIFVIIGSLEKTGVTASLAQLLAVVVGQNIAFGAIVLVFTVGLLSSVVPNIPLVVAMVPLLKQYVVNIGFAGPEILGANFDGQLPAEVLPLFYAMMFGATLGGNGTLVGASSNIVAAGISEQHGRPISFHRFLRYGLPVMAVQLVVAALFVAWLMFTQQG”: the protein production entry is listed as “failed”.

In the case of “MVANLVTVVIVNYNSGEMLGKCVEHLLKSTVPIQIIISDNASSDNSLALLEQSELNKQTITIHRNNSNYGFSYANNAVFTKISTPFILYLNPDCFVENDTIENLLHTMHQHNDAGMVGCLVNNMDGSVQIGCCGLTPTPARVLNQLLKLSKIFPNNSKFGGYLFSKEKLPTKPTEVELISGSCMFVRKKAIDEVGLLDDNYFLYCEDYDWFYRFTQSNWKIIFNPNTKVTHIKSFSTKQIPFKVLLYKAKGMWRFYNKFFKENSSPATTLIIRVGIIARFFSLSGLLLFKKLLRTTS”, the protein production result was “failed”.

With “MVAYPGPMPRSPSPGQTPDAPTSGGGSTDSTRQRIVAAAKEEFARHGIAGARVDRIAKQARTSKERVYAYFRSKEALYAHVAERETTALIEATQLDPADLPGYAGILFDHFAARPDHYRLITWGRLELAESADNTSGPLQATIAGKLDKLRDAQRIGLLDPAWDPVDVLALINQIAMTWAGQPEIAAAAADQAVDPSVTARRAALVTAVEHMFPRPDRDQRPNRLT”, the protein production entry is on record as “not failed”.

Take “MVDISLIIGGPQGGGIESAGQIAIKSMVLLGYEVLGSREYHSNIMGAHSYYHLRVQQHRPRSLKLPVDGVLALDAESVFTHFRDVRPGGILVYDPGTKSTRVDAIQPMAGPLKKRLKSLFDSRGMQPVVESAVKLAEEAGARIVGLPLKEMLKTLSERTGAPVARVSRALNTLGLASMLYMLGVPVEYIEKAISLQFAGKEKVINMNVEAVRIAVDYVREAFGEPESRLPPGPRRGQTMMVATGNDLVAMGKIVGGLGVITYYPITPSSDEALYVEKHSYISIDGPLAEKLGYDKIAVAIVQMEDELASINAVLGAAAAGARASTTTSGPGFSLMNEAVSLAVEAEIPVVVTLWMRAGPSTGMPTRTGQQDLLHSIFSGHGDAPKIVLASGDHVEAFYDAIKAFNWAEEFQTPVIHLLDKYLASSMVSLAREDLDPSKVPITRGKLLDNPPADYRRYEVVEDGISPRARLGSATMVITGLEHDEYGYATEDPVMREIMMFKRERKFKVIEERIPDEEKAVLHGDSEASVALVSFGSTKQPILEALEMLRDEGVRARFAQVRLLYPFPGRLVEEMLEGVEKVIMVEQNLLGQLAMLLRAHTSIKPDSSIVKINGRPLYSFEVAGAVKRILETGEERVVVSHGS”: the protein production entry is reported as “failed”.

On to “MVDKGVVNNVDECVEGTDHCHIDAICQNTPRSYKCICKSGYTGDGKHCKDVDECEREDNAGCVHDCVNIPGNYRCTCYDGFHLAHDGHNCLDVDECAEGNGGCQQSCVNMMGSYECHCRDGFFLSDNQHTCIQRPEEGMNCMNKNHGCAHICRETPKGGIACECRPGFELTKNQRDCKLTCNYGNGGCQHTCDDTEQGPRCGCHVKFVLHTDGKTCIETCAVNNGGCDSKCHDAATGVHCSCPVGFMLQPDRKTCKDIDECRLHNGGCDHICRNTVGSFECSCKKGYKLLINERSCQDIDECSFDRTCDHMCVNTPGSFQCLCHRGYLLYGISHCGDVDECSINKGGCRFGCINTPGSYQCTCPAGQGRLHWNGKDCTEPVKCQSSSGASKAMLSCSRSGKKDTCALTCPSRARFLPESENGFTVSCGTPSPKAAAGRAIHPGNSTISNSCHEAAVLPVKQRASFKIKDAKCRLHLRNKGKAEEASGRTPGPGGASCSDCQVTFIHLKCDSSRKGKGRRARTPPGKEVTRLTLELEAEVRAEETTAGCGLTCLRQRMERRLKGSLKMLRKSINQDRFLLRLAGLDYELAHKPGLAAGDRAELVEVCRPGQHRAGTKCVSCPQGTYYHGQTEQCVPCPAGTFQEREGQLSCDLCPGSDAHGPLGATNVTTCAGQCPPGQHSGDGFKPCQPCPRGTYQPEAGRTLCFPCGGGLTTKHEGAVSFQDCDTKVQCSPGHYYNTSIHRCIRCAVGSYQPDFRQNFCTRCPGNTSADFDGSTSVAQCKNRQCGGELGEFTGYIESPNYPGNYPAGVECIWNINPPPKRKILIVVPEIFLPSEDECGDVLVMRKNSSPSSITTYETCQTYERPIAFTARSRKLWINFKTSEANSARGFQIPYVTYDEDYEQLVEDIVRDGRLYASENHQEILKDKKLIKAFFEVLAHPQNYFKYTEKHKEMLPKSFIKLLRSKVSSFLRPYK”, for which the protein production result is “failed”.

Regarding “MVDLGKQRDHNYHHMQIITTPTSVDCSREFRHRRTLRSLIECMIPYCCTYQQQPYQNDTLSVSSTSSSSSSSDHSSSSQSSSTVSGTFFGHRRGRVSFCLQDAAVGSSPLLLLELAVPTAALAKEMDEEGVLRIALECDRRRSSNSRSSSIFDVPVWSMFCNGRKMGFAVRRKVTENDAVFLRMMQSVSVGAGVVPSEEEDQMLYLRARFERVTGSSDSESFHMMNPGGSYGQELSIFLLRS”, the protein production entry is “failed”.

On to “MVDNKKKRQYPLVPLSVIQSALEEDPISIKMILKHYHSYIVKLCLTNGFNEAEQFITYVDEYMLRQLEIKLIEAILKFKINLEHHHHHH”, for which the protein production result is on record as “failed”.

For the sequence “MVDPNEHKKAVKTQQQDDEQTFEAVARAWHTDNKKWSESHAERILKSLSDNIFPAIGGTHVANLKTRDLLTPIKSVERSGRLEVAKRLKQRVTAIMTYAVQNGLIDYNPAQDMAGAIMPGKVEHRLEHHHHHH”, the protein production result was “failed”.

Take “MVDQQDTFAEYFKNWYIFYKKPKVSKVTLNRYQYTYNVINEYFGNKLLKDITRANYQKFIVKYGQNHSPNTMKMINNCIKACVKNAVYDEEIKKDFTYNIELISNRLEHHHHHH”: the protein production entry is given as “failed”.

For the sequence “MVDSHVHTPLCGHAEGHPEAYLEEARAKGLKGVVFTDHSPMPPWYDPESRMRLEALPFYLLALERVRERAQDLYVGIGLEADFHPGTEGFVAQLLRRYPFDYVIGSVHYLGAWPLDHPDHQEEYAWRDLKEVFRAYFQEVEKAARSGLFHAIGHLDLPKKFGHRLPEEALLELAEPALRAVAEAGLFLDVNTAGLRRPAKEVYPAPALLRRARELGIGLVLGSDAHRPEEVGFAFPEVQALLAGLGFREAYYFVEGSPVAYPLSRASLEHHHHHH”, the protein production entry was “not failed”.

Take “MVEAIIFDMDGVLFDTEKYYYDRRASFLGQKGISIDHLPPSFFIGGNTKQVWENILRDEYDKWDVSTLQEEYNTYKQNNPLPYKELIFPDVLKVLNEVKSQGLNIGLASSSVKADIFRALEENRLQAFFDIVLSGEEFKESKPNPEIYLTALKQLNVQASRALIIEDSEKGIAAGVAADVEVWAIRDNLFGMDQSAAKGLLDSLTDVLDLIK”: the protein production entry is listed as “not failed”.

For the sequence “MVEPSLVLYGAPYERAVEVLEETLRETGARYALLIDRKGFVLAHKEALWAPKPPPLDTLVTLVAGNAAATQALAKLLGEARFQEEVHQGERMGLYVDEAGEHALLVLVFDETAPLGKVKLHGKRAAEALARIAEEALANPPRLALDTEYREGAEALLDDLLRN”, the protein production entry was “not failed”.

With “MVESWALTTPPIDIVNQYLFFIKRKTNYMATYYYALASQKFLLEEEPFEEVLKERRRDYGEKNKEIDFWQVIQPAFLNAPELAEAKAKAPEKNVAIVSTNKSFIVWVKLRLEYVLTGEFEAPSDAIPDPLASLDLEHHHHHH”, the protein production result is reported as “failed”.

“MVEVESDSVAERDRSSFLAGHDAIRLAKSCVDSPPERWYAALYQVYADLTKLRCWSNVEVVYSDSATFPTGLLGPLFEEDSMVQELHSAQCILGSERACFHVRCCIVGSPPSGRAINALSPQSETRTEERIITSRREPEVVIAVPMHAMLKLSNLDQALRMSSHIEGIVKNRHVADSSASTHSTDRQAGSRKSSVIFGFVDEDTTTAYYRIREGACESNDRREFSTDDIASCLAQERT”: the protein production entry is listed as “not failed”.

Turning to “MVFDAIVVTDLQGFIIDWNKGSETLYGYSKEQAIGQPVNMLHVPGDTEHITSEVISAVENQGKWTGEIRMLHKDGHIGWIESMCVPIYGENYQMVGALGINRDITKRKKELEHHHHHH”, the protein production result was “failed”.

For “MVGEEDSERAQSSKMEIERESNLGSASVLMQSKVISVSNFFSIHRFHYPREKIVSFLFPSVFSRIMASYGEEREIQKNYWKEHSVGLSVEAMMLDSKASDLDKEERPEILAFLPPIEGTTVLEFGAGIGRFTTELAQKAGQVIAVDFIESVIKKNENINGHYKNVKFLCADVTSPNMNFPNESMDLIFSNWLLMYLSDQEVEDLAKKMLQWTKVGGYIFFRESCFHQSGDNKRKYNPTHYREPKFYTKLFKECHMNDEDGNSYELSLVSCKCIGAYVRNKKNQNQICWLWQKVSSDNDRGFQRFLDNVQYKSSGILRYERVFGEGFVSTGGLETTKEFVDMLDLKPGQKVLDVGCGIGGGDFYMAENFDVDVVGIDLSVNMISFALEHAIGLKCSVEFEVADCTKKEYPDNTFDVIYSRDTILHIQDKPALFRRFYKWLKPGGKVLITDYCRSPKTPSPDFAIYIKKRGYDLHDVQAYGQMLRDAGFEEVIAEDRTDQFMKVLKRELDAVEKEKEEFISDFSKEDYEDIIGGWKSKLLRSSSGEQKWGLFIAKRN”, the protein production entry is “failed”.

Consider “MVGNVRHYLFYANSSELQQQMMNRKSHFNLSQTTQEWLIGKGYNPEDLEQPGENGDSALMKATREGVDAVVKELIDLGVDINARNNDNNNALWFACFGNHYDLIHLLLAAKINIDNQNDNGATVLMYAASAGKTEVVKLLLQYHPNLYLRNLDDFQAIDFASNVEVLRLLKNATK”, for which the protein production result is on record as “failed”.

For “MVGQIAKEMGLRAYIVGGVVRDILLGKEVWDVDFVVEGNAIELAKELARRHGVNVHPFPEFGTAHLKIGKLKLEFATARRETYPRPGAYPKVEPASLKEDLIRRDFTINAMAISVNLEDYGTLIDYFGGLRDLKDKVIRVLHPVSFIEDPVRILRALRFAGRLNFKLSRSTEKLLKQAVNLGLLKEAPRGRLINEIKLALREDRFLEILELYRKYRVLEEIIEGFQWNEKVLQKLYALRKVVDWHALEFSEERIDYGWLYLLILISNLDYERGKHFLEEMSAPSWVRETYKFMKFKLGSLKEELKKAKENYEVYRLLKPLHTSVLLLLMLEEELKEKIKLYLEKLRKVKLPKEKIEELKKQGLKGKELGERIEELKREIMNKIKLAAALE”, the protein production result is on record as “not failed”.
